Data taken from publication PMC12232886, “Multiple and Alternative Sites Make Tau Protein an Adaptable Sticky Surface for the SH3 Domain of Fyn Kinase” (Angewandte Chemie (International Ed. in English), 2025).
Read-outs that look alike come from different tables or passages of the source. Values belong to the substance of their own block, whether it stands above or below them.

Molecular target: T1, Fyn-SH3 (Homo sapiens, UniProt P06241)
T1 construct: 82-143) was cloned into the pET-TEV; His-tag (TEV-cleavable, pET-TEV vector) (N, cleaved yes); made in house; host or cells: E. coli BL21(DE3)
T1 sequence (P06241 82-143): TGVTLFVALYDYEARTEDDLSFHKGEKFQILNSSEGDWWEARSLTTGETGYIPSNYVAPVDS
Assay: Isothermal titration calorimetry (ITC), Fyn-SH3 titrated into Tau fragments
Type: binding
Settings: 20 mM potassium phosphate pH 6.8, 25 °C, error from data fitting
Excerpt: Figure 3 ITC analysis of Fyn‐SH3 binding to Tau. ITC measurements of Fyn‐SH3 titrated into Tau fragments 151–372 (a), 151–243 (b), 151–372 Δ175–179 (c), 151–372 Δ215–219 (d), 151–372 Δ175–179 Δ215–219 (e). The upper and lower panels show the raw thermograms (DP, differential power), and the integrated heats corrected for the heat of dilution (ΔH), respectively. The blue line in the latter panels represents the fit curve. […]
Isothermal Titration Calorimetry (ITC)
For ITC measurements, purified Fyn-SH3 and Tau proteins were dialyzed overnight against 20 mM potassium phosphate buffer (pH 6.8). Concentrations of proteins were measured using a NanoDrop instrument (Thermo Fisher Scientific), by using molar extinction coefficients at 280 nm. Calorimetric titrations were carried out on a MicroCal PEAQ-ITC instrument (Malvern) at 25 °C. The sample cell contained 20 μM Tau protein and the injection syringe 0.6 mM or 1 mM solution of Fyn-SH3. Only for the Tau mutant 151-372 Δ175-179 Δ215-219, the experiment was conducted with 60 μM Tau protein in the cell and 1.2 mM SH3 in the syringe. Titrations were carried out with a preliminary 0.4 μl injection, followed by 2 μl injections with time intervals of 150 sec, with stirring rate of 500 rpm and reference power of 10 μcal/sec. A blank titration (ligand into buffer) was recorded in the same experimental conditions and the dilution heats were subtracted to the data.
Binding isotherms were analyzed with the MicroCal PEAQ-ITC analysis software, using the two-sets of sites or the one-set of sites fitting models. […]

[1] = one-set of sites model, 20 μM Tau in cell, 0.6 mM or 1 mM SH3 in syringe, read-out: Kd

Substance: Tau 151–372 Δ215‐219: Tau 151-372 deletion mutant lacking the PxxP motifs in HSPR2
Kd (one-set of sites model, 20 μM Tau in cell, 0.6 mM or 1 mM SH3 in syringe, listed as Tau 151–372 Δ215–219, read-out: Kd): ~12 µM | Kd (one-set of sites model, 20 μM Tau in cell, 0.6 mM or 1 mM SH3 in syringe, listed as Δ215–219, read-out: Kd): 13 µM | Kd [1]: 12.7 ± 4.4 µM

Substance: Tau 151–372 Δ175‐179: Tau 151-372 deletion mutant lacking the PxxP motifs in HSPR1
Kd (one-set of sites model, 20 μM Tau in cell, 0.6 mM or 1 mM SH3 in syringe, listed as Δ175–179, read-out: Kd): 12 µM | Kd [1]: 12.2 ± 5.4 µM

Substance: Tau 151–372: recombinant Tau fragment 151-372, his-tag cleaved, containing all three HSPRs
Kd (two-sets of sites model, site I, 20 μM Tau in cell, 0.6 mM or 1 mM SH3 in syringe, read-out: KdI): 2.5 ± 1.1 µM | Kd (two-sets of sites model, site II, 20 μM Tau in cell, 0.6 mM or 1 mM SH3 in syringe, listed as Tau151‐372, read-out: KdII): 38 µM | Kd (two-sets of sites model, site II, 20 μM Tau in cell, 0.6 mM or 1 mM SH3 in syringe, read-out: KdII): 37.6 ± 22.7 µM

Results, then the substance that gave them:

Kd (two-sets of sites model, site I, 60 μM Tau in cell, 1.2 mM SH3 in syringe, listed as Δ175–179 Δ215–219, read-out: KdI): 10 µM | Kd (two-sets of sites model, site I, 60 μM Tau in cell, 1.2 mM SH3 in syringe, read-out: KdI): 10.3 ± 2.2 µM | Kd (two-sets of sites model, site II, 60 μM Tau in cell, 1.2 mM SH3 in syringe, read-out: KdII): 347 ± 79 µM
Substance: Tau 151–372 Δ175‐179 Δ215‐219: Tau 151-372 double deletion mutant lacking the PxxP motifs in HSPR1 and HSPR2

Kd [1]: ~12 µM
Substance: Tau 151–243: recombinant Tau fragment 151-243 lacking the HSPR3 and the MBD
